Measured values as given in US20100015126A1, “Methods of Binding of Cross-Beta Structures By Chaperones” (priority 2006, published 2010).

Experiments:
human BiP [1] = target: T1, human BiP (Homo sapiens, UniProt P11021); assay: ELISA: binding of BiP in cell culture supernatant to immobilized misfolded proteins; conditions: undiluted supernatant of 293E cells overexpressing BiP; ligands coated at 5 μg/ml, Aβ 20 μg/ml
T1 construct: The human BiP gene except the signal peptide encoding region was obtained from Geneart (Germany); linker […]; made in house; host or cells: HEK 293E cells, transient transfection, PABC674 vector; secreted into the medium
Method: Binding of BiP to Misfolded Proteins with Crossbeta Structure
Proteins at 5 μg/ml were coated for 1 h at room temperature with agitation, in Microlon high-binding ELISA plates (Greiner) in 50 mM NaHCO3 pH 9.6, except for Aβ that was coated at 20 μg/ml. Buffer was coated as negative control. A twofold dilutions series of cell culture supernatant of HEK 293E cells overexpressing BiP was also coated to the plate for anti-FLAG-tag antibody control purposes. Plates were washed and blocked with ½*Blocking reagent (Roche). Undiluted cell culture supernatant enriched with 0.1% Tween20 was added to the wells with immobilized protein ligands and incubated for 1 h at room temperature with agitation. Medium was discarded and the plate was washed with PBS with 0.1% v/v Tween20. Mouse monoclonal anti-FLAG-tag antibody (Sigma, A8592, anti-FLAG M2PO conjugate) was diluted 1000× in PBS/0.1% Tween20 and added to all wells, including those that are coated with cell culture supernatant. After a 1 h incubation at room temperature with agitation and after washing, wells were overlayed with 3000× diluted RAMPO (DAKOCytomation) in PBS/0.1% Tween20. After 30 minutes the plate was washed and bound peroxidase was visualised with tetramethylbenzidine (TMB, #45.103.20/#45.014.01, Biosource, Nivelles, Belgium). The reaction was stopped after 5 minutes with 10% H2SO4 in H2O. Plates were read at 450 nm.

human BiP [2] = target: T1, human BiP; assay: ELISA: binding of BiP-FLAG-His to immobilized (misfolded) protein ligands; conditions: ligands coated at 5 μg/ml; 6BB peptides and oxLDL 50 μg/ml
Summary of the method: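 Ligands were coated at 5 μg/ml (50 μg/ml for 6BB# peptides and oxLDL) in 50 mM NaHCO3 pH 9.6, blocked, then incubated in triplicate with BiP-FLAG-His dilution series for 1 h at room temperature. Bound BiP was detected with peroxidase anti-FLAG M2 and TMB, stopped after 5 min and read at 450 nm. Buffer-only and chaperone-omitted background signals were subtracted.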

T1 sequence (P11021 19-654): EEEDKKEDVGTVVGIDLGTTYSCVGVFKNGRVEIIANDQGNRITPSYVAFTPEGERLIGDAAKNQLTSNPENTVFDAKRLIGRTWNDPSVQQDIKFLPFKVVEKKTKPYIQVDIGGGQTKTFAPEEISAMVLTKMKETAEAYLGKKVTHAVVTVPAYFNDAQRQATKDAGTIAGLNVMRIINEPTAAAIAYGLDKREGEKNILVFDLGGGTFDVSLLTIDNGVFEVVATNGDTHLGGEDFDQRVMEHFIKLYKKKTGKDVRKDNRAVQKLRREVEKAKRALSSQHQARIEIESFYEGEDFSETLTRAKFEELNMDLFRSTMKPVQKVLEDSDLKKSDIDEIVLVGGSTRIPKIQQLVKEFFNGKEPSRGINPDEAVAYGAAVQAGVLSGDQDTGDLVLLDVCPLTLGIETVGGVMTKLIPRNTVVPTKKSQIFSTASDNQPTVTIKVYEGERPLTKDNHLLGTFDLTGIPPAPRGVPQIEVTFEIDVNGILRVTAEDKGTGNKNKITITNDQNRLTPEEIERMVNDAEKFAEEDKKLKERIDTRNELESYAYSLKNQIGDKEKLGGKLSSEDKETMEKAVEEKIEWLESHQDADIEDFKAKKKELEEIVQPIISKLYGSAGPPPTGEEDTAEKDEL

Row | Substance | Binding of BiP to immobilized protein (ELISA) (human BiP [1]) | Binding of concentration series of BiP to coated ligand (human BiP [2])
1 | native BSA: non-modified bovine serum albumin control | not | did not bind
2 | BSA-AGE | binds | has been established
3 | AGEYYAAL [6BB7] | – | did not bind
4 | GSNKGAIIGLM [6BB6, Human Aβ (25-35)] | – | has been established
5 | Hb: non-modified human haemoglobin control | – | did not bind
6 | HbAGE: human haemoglobin glycated with glucose-6-phosphate for 75 weeks | binds | has been established
7 | KLVFFAE [6BB12, Human Aβ16-22] | – | no BiP binding was observed
